Experimental data: US12679878B2, “CRF2 receptor agonists and their use in therapy” (SANOFI, priority 2020, dated 2026)
Starred links: 1 amine or outer side, 2 acyl side, 3 side chain; linkers in the order of their positions; H or OH if unused. Non-standard residues stand in square brackets, D forms with d. Groups on a side chain read outwards from the residue. No end group written: not given here. *: point of attachment. C16 diacid = O=C(O)CCCCCCCCCCCCCCC(=O)*; γGlu = O=C(O)[C@H](CCC(=O)[*:2])N[*:1]; Aib = CC(C)(N)C(=O)O

T1: CRF1R receptor (anti-target) (UniProt P34998 24-415, limits assumed)
T1 sequence (looked up): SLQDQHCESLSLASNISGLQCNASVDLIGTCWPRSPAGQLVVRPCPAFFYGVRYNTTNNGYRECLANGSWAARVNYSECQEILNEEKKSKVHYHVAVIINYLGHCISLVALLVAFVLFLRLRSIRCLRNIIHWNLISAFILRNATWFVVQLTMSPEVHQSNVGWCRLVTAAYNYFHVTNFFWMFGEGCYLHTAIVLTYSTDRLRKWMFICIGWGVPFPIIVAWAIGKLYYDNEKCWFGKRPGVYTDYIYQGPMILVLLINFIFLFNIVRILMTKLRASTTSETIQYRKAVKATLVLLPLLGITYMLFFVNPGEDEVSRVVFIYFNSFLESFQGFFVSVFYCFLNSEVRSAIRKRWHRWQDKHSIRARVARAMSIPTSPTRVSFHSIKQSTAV


Target: T1, CRF1R receptor (anti-target)
Assay: cell-based or functional assay

| EC50 [nM] 0% HSA (cAMP, HTRF) | Emax (%) (100% = Sauvagine at 100 nM) | Binder |
| --- | --- | --- |
| > 100 nM | 12% | IVLSLD[dV]PIKLK([γGlu-C16 diacid])QILLKQERQKKQREQAEKNKQILEQV-NH2 (N-terminus assumed; SMILES CC[C@H](C)[C@H](N)C(=O)N[C@H](C(=O)N[C@@H](CC(C)C)C(=O)N[C@@H](CO)C(=O)N[C@@H](CC(C)C)C(=O)N[C@@H](CC(=O)O)C(=O)N[C@@H](C(=O)N1CCC[C@H]1C(=O)N[C@H](C(=O)N[C@@H](CCCCN)C(=O)N[C@@H](CC(C)C)C(=O)N[C@@H](CCCCNC(=O)CC[C@H](NC(=O)CCCCCCCCCCCCCCC(=O)O)C(=O)O)C(=O)N[C@@H](CCC(N)=O)C(=O)N[C@H](C(=O)N[C@@H](CC(C)C)C(=O)N[C@@H](CC(C)C)C(=O)N[C@@H](CCCCN)C(=O)N[C@@H](CCC(N)=O)C(=O)N[C@@H](CCC(=O)O)C(=O)N[C@@H](CCCNC(=N)N)C(=O)N[C@@H](CCC(N)=O)C(=O)N[C@@H](CCCCN)C(=O)N[C@@H](CCCCN)C(=O)N[C@@H](CCC(N)=O)C(=O)N[C@@H](CCCNC(=N)N)C(=O)N[C@@H](CCC(=O)O)C(=O)N[C@@H](CCC(N)=O)C(=O)N[C@@H](C)C(=O)N[C@@H](CCC(=O)O)C(=O)N[C@@H](CCCCN)C(=O)N[C@@H](CC(N)=O)C(=O)N[C@@H](CCCCN)C(=O)N[C@@H](CCC(N)=O)C(=O)N[C@H](C(=O)N[C@@H](CC(C)C)C(=O)N[C@@H](CCC(=O)O)C(=O)N[C@@H](CCC(N)=O)C(=O)N[C@H](C(N)=O)C(C)C)[C@@H](C)CC)[C@@H](C)CC)[C@@H](C)CC)C(C)C)C(C)C) [peptide of SEQ ID NO: 190] |
| > 100 nM | 15% | IVLSLD[dV]PIKLK([γGlu-C16 diacid])QILLKQERQKK[Aib]RQKAEKNKQILAQV-NH2 (N-terminus assumed; SMILES CC[C@H](C)[C@H](N)C(=O)N[C@H](C(=O)N[C@@H](CC(C)C)C(=O)N[C@@H](CO)C(=O)N[C@@H](CC(C)C)C(=O)N[C@@H](CC(=O)O)C(=O)N[C@@H](C(=O)N1CCC[C@H]1C(=O)N[C@H](C(=O)N[C@@H](CCCCN)C(=O)N[C@@H](CC(C)C)C(=O)N[C@@H](CCCCNC(=O)CC[C@H](NC(=O)CCCCCCCCCCCCCCC(=O)O)C(=O)O)C(=O)N[C@@H](CCC(N)=O)C(=O)N[C@H](C(=O)N[C@@H](CC(C)C)C(=O)N[C@@H](CC(C)C)C(=O)N[C@@H](CCCCN)C(=O)N[C@@H](CCC(N)=O)C(=O)N[C@@H](CCC(=O)O)C(=O)N[C@@H](CCCNC(=N)N)C(=O)N[C@@H](CCC(N)=O)C(=O)N[C@@H](CCCCN)C(=O)N[C@@H](CCCCN)C(=O)NC(C)(C)C(=O)N[C@@H](CCCNC(=N)N)C(=O)N[C@@H](CCC(N)=O)C(=O)N[C@@H](CCCCN)C(=O)N[C@@H](C)C(=O)N[C@@H](CCC(=O)O)C(=O)N[C@@H](CCCCN)C(=O)N[C@@H](CC(N)=O)C(=O)N[C@@H](CCCCN)C(=O)N[C@@H](CCC(N)=O)C(=O)N[C@H](C(=O)N[C@@H](CC(C)C)C(=O)N[C@@H](C)C(=O)N[C@@H](CCC(N)=O)C(=O)N[C@H](C(N)=O)C(C)C)[C@@H](C)CC)[C@@H](C)CC)[C@@H](C)CC)C(C)C)C(C)C) [peptide of SEQ ID NO: 189] |
| > 100 nM | 8.77% | IVLSLD[dV]PIGLK([γGlu-C16 diacid])QILLKQERQKK[Aib]REQAETNKRILERV-NH2 (N-terminus assumed; SMILES CC[C@H](C)[C@H](N)C(=O)N[C@H](C(=O)N[C@@H](CC(C)C)C(=O)N[C@@H](CO)C(=O)N[C@@H](CC(C)C)C(=O)N[C@@H](CC(=O)O)C(=O)N[C@@H](C(=O)N1CCC[C@H]1C(=O)N[C@H](C(=O)NCC(=O)N[C@@H](CC(C)C)C(=O)N[C@@H](CCCCNC(=O)CC[C@H](NC(=O)CCCCCCCCCCCCCCC(=O)O)C(=O)O)C(=O)N[C@@H](CCC(N)=O)C(=O)N[C@H](C(=O)N[C@@H](CC(C)C)C(=O)N[C@@H](CC(C)C)C(=O)N[C@@H](CCCCN)C(=O)N[C@@H](CCC(N)=O)C(=O)N[C@@H](CCC(=O)O)C(=O)N[C@@H](CCCNC(=N)N)C(=O)N[C@@H](CCC(N)=O)C(=O)N[C@@H](CCCCN)C(=O)N[C@@H](CCCCN)C(=O)NC(C)(C)C(=O)N[C@@H](CCCNC(=N)N)C(=O)N[C@@H](CCC(=O)O)C(=O)N[C@@H](CCC(N)=O)C(=O)N[C@@H](C)C(=O)N[C@@H](CCC(=O)O)C(=O)N[C@H](C(=O)N[C@@H](CC(N)=O)C(=O)N[C@@H](CCCCN)C(=O)N[C@@H](CCCNC(=N)N)C(=O)N[C@H](C(=O)N[C@@H](CC(C)C)C(=O)N[C@@H](CCC(=O)O)C(=O)N[C@@H](CCCNC(=N)N)C(=O)N[C@H](C(N)=O)C(C)C)[C@@H](C)CC)[C@@H](C)O)[C@@H](C)CC)[C@@H](C)CC)C(C)C)C(C)C) [peptide of SEQ ID NO: 193] |
| > 100 nM | 43.8% | IVLSLD[dV]PIKLK([γGlu-C16 diacid])QILLKQERQK[Aib]QREQAEKNKQILAQV-NH2 (N-terminus assumed; SMILES CC[C@H](C)[C@H](N)C(=O)N[C@H](C(=O)N[C@@H](CC(C)C)C(=O)N[C@@H](CO)C(=O)N[C@@H](CC(C)C)C(=O)N[C@@H](CC(=O)O)C(=O)N[C@@H](C(=O)N1CCC[C@H]1C(=O)N[C@H](C(=O)N[C@@H](CCCCN)C(=O)N[C@@H](CC(C)C)C(=O)N[C@@H](CCCCNC(=O)CC[C@H](NC(=O)CCCCCCCCCCCCCCC(=O)O)C(=O)O)C(=O)N[C@@H](CCC(N)=O)C(=O)N[C@H](C(=O)N[C@@H](CC(C)C)C(=O)N[C@@H](CC(C)C)C(=O)N[C@@H](CCCCN)C(=O)N[C@@H](CCC(N)=O)C(=O)N[C@@H](CCC(=O)O)C(=O)N[C@@H](CCCNC(=N)N)C(=O)N[C@@H](CCC(N)=O)C(=O)N[C@@H](CCCCN)C(=O)NC(C)(C)C(=O)N[C@@H](CCC(N)=O)C(=O)N[C@@H](CCCNC(=N)N)C(=O)N[C@@H](CCC(=O)O)C(=O)N[C@@H](CCC(N)=O)C(=O)N[C@@H](C)C(=O)N[C@@H](CCC(=O)O)C(=O)N[C@@H](CCCCN)C(=O)N[C@@H](CC(N)=O)C(=O)N[C@@H](CCCCN)C(=O)N[C@@H](CCC(N)=O)C(=O)N[C@H](C(=O)N[C@@H](CC(C)C)C(=O)N[C@@H](C)C(=O)N[C@@H](CCC(N)=O)C(=O)N[C@H](C(N)=O)C(C)C)[C@@H](C)CC)[C@@H](C)CC)[C@@H](C)CC)C(C)C)C(C)C) [peptide of SEQ ID NO: 187] |
